# Measurements from publication PMC9934407, “Comprehensive structural characterization of the human AAA+ disaggregase CLPB in the apo- and substrate-bound states reveals a unique mode of action driven by oligomerization” (PLOS Biology, 2023).
# Residue numbers refer to the chain shown, from its start. In names and notes the source's numbering stands. Several values for one entry are separate records, joined by “and”; a condition that tells them apart may be missing. Identical values can stand only once.
# B1: human CLPB (isoform 2), construct CLPB-N127, wild type (enzyme, UniProt Q9H078-2 127-677, looked up)
# chain: YSKSPSNKDAALLEAARANNMQEVSRLLSEGADVNAKHRLGWTALMVAAINRNNSVVQVLLAAGADPNLGDDFSSVYKTAKEQGIHSLEVLITREDDFNNRLNNRASFKGCTALHYAVLADDYRTVKELLDGGANPLQRNEMGHTPLDYAREGEVMKLLRTSEAKYQEKQRKREAEERRRFPLEQRLKEHIIGQESAIATVGAAIRRKENGWYDEEHPLVFLFLGSSGIGKTELAKQTAKYMHKDAKKGFIRLDMSEFQERHEVAKFIGSPPGYVGHEEGGQLTKKLKQCPNAVVLFDEVDKAHPDVLTIMLQLFDEGRLTDGKGKTIDCKDAIFIMTSNVASDEIAQHALQLRQEALEMSRNRIAENLGDVQISDKITISKNFKENVIRPILKAHFRRDEFLGRINEIVYFLPFCHSELIQLVNKELNFWAKRAKQRHNITLLWDREVADVLVDGYNVHYGARSIKHEVERRVVNQLAAAYEQDLLPGGCTLRITVEDSDKQLLKSPELPSPQAEKRLPKLRLEIIDKDSKTRRLDIRAPLHPEKVCNTI
# notes: human CLPB, splicing isoform 2, starting from the PARL cleavage site (between C126 and Y127) to the C-terminus; Double-heptamer (tetradecamer) in the apo state; about 1 mM BS3 was added to the samples for cryo-EM; also called SKD3; WT CLPB; source: E. coli Transetta (DE3), purified (ammonium sulfate, Mono Q, TEV cleavage, Superose 6 SEC); not shown: His×6-SUMO, N-terminal, cleaved; copies: 14
# B2: human CLPB (isoform 2) R227E (enzyme, UniProt Q9H078-2 127-677, looked up)
# chain: B1 chain with R101E
# notes: human CLPB isoform 2 (CLPB-N127) with R227E; also called CLPB^R227E; source: E. coli, purified; not shown: His×6-SUMO, N-terminal, cleaved
# B3: human CLPB (isoform 2, CLPB-N127) Walker B mutant E425Q (enzyme, UniProt Q9H078-2 127-677, looked up)
# chain: B1 chain with E299Q
# notes: human CLPB isoform 2 from the PARL cleavage site (Y127) to the C-terminus, with E425Q; Double-hexamer (dodecamer) with a co-purified endogenous peptide in the central channel; also called CLPB^E425Q; source: E. coli, purified as the wild type; not shown: His×6-SUMO, N-terminal, cleaved; copies: 12
# B4: human CLPB (isoform 2) R178E (enzyme, UniProt Q9H078-2 127-677, looked up)
# chain: B1 chain with R52E
# notes: human CLPB isoform 2 (CLPB-N127) with R178E; also called CLPB^R178E; source: E. coli, purified; not shown: His×6-SUMO, N-terminal, cleaved
# B5: human CLPB (isoform 2) with the ANK insertion deleted (enzyme, UniProt Q9H078-2 127-677, looked up)
# chain: YSKSPSNKDAALLEAARANNMQEVSRLLSEGADVNAKHRLGWTALMVAAINRNNSVVQVLLAAGADPNLGDDFSSFKGCTALHYAVLADDYRTVKELLDGGANPLQRNEMGHTPLDYAREGEVMKLLRTSEAKYQEKQRKREAEERRRFPLEQRLKEHIIGQESAIATVGAAIRRKENGWYDEEHPLVFLFLGSSGIGKTELAKQTAKYMHKDAKKGFIRLDMSEFQERHEVAKFIGSPPGYVGHEEGGQLTKKLKQCPNAVVLFDEVDKAHPDVLTIMLQLFDEGRLTDGKGKTIDCKDAIFIMTSNVASDEIAQHALQLRQEALEMSRNRIAENLGDVQISDKITISKNFKENVIRPILKAHFRRDEFLGRINEIVYFLPFCHSELIQLVNKELNFWAKRAKQRHNITLLWDREVADVLVDGYNVHYGARSIKHEVERRVVNQLAAAYEQDLLPGGCTLRITVEDSDKQLLKSPELPSPQAEKRLPKLRLEIIDKDSKTRRLDIRAPLHPEKVCNTI
# notes: human CLPB isoform 2 (CLPB-N127) with the insertion between AM2 and AM3 completely deleted; source: E. coli, purified; not shown: His×6-SUMO, N-terminal, cleaved
# Tests used:
# [1] = target: human CLPB NBD-only variant (N-terminal ANK domain truncated) (human) (UniProt Q9H078); test: cryo-EM 2D classification; NBD^WT-AMPPNP dataset
# [2] = target: human CLPB isoform 1 (human); test: negative staining electron microscopy + cryo-EM 2D classification; CLPB^isoform1-AMPPNP dataset, protein purified from E. coli
# [3] = target: human CLPB NBD-only variant with E425Q (human) (UniProt Q9H078); test: cryo-EM structure; NBD^E425Q-ATP dataset; self-assembly into hexamer, heptamer and nonamer
# [4] = target: the molecule itself; test: cryo-EM 2D classification; CLPB-ATPγS dataset, control without casein
# [5] = target: the molecule itself; test: SEC + other: negative staining electron microscopy; proteins purified from E. coli; Superose 6 Increase 10/300 GL, 20 mM HEPES-KOH pH 6.8, 300 mM KCl, 5 mM MgCl2; with or without AMPPNP; peak fraction seen by nsEM
# [6] = target: the molecule itself; test: cryo-EM structure; CLPB^E425Q-ATP dataset; sample treated with ATP and about 1 mM BS3, 0.5 mM CHAPSO added; self-assembly of the mutant
# [7] = target: the molecule itself; test: SEC; purification of CLPB, CLPB^Δ201–232 and CLPB^isoform1 complexes by size-exclusion chromatography (S7C–S7E Fig)
molecule,measurement,setting,value
human CLPB NBD-only variant (N-terminal ANK domain truncated) (from UniProt Q9H078-2 1-677) (domain or fragment),stoichiometry N,[1],6 and 7
human CLPB isoform 1 (enzyme),stoichiometry N,[2],14
human CLPB NBD-only variant with E425Q (from UniProt Q9H078-2 1-677) (domain or fragment),stoichiometry N,[3],6 and 7 and 9
B1,stoichiometry N,[4],14
B2,binding result,[5],binds
B3,stoichiometry N,[6],12
B4,binding result,[5],binds
B5,binding result,[7],binds
